According to the RNAGym collection of RNA variant scans (doi:10.7554/elife.80360):

B1: CPEB3 Ribozyme (parent)
chain: GGGGGCCACAGCAGAAGCGUUCACGUCGCGGCCCCUGUCAGAUUCUGGUGAAUCUGCGAAUUCUGCUGU

Variants of: B1
Experiment: self-cleavage, relative activity (ratio to wild type); higher = more cleavage; co-transcriptional

First: C54A G68U
Second: C54A U62A
The self-cleavage of the first is higher: 0.963 for the first, 0.546 for the second.

Going from C54A U64G to C54A U67C, the self-cleavage rises from 0.471 to 0.887.

First: C54A U67G
Second: C54A U69G
The self-cleavage of the first is lower: 0.887 for the first, 1.01 for the second.

First: C54G A59U
Second: C54G C57U
The self-cleavage of the first is higher: 0.47 for the first, 0.392 for the second.

Going from C54G C63A to C54G C66A, the self-cleavage falls from 0.543 to 0.514.

First: C54G C66G
Second: C54G G56U
The self-cleavage of the first is higher: 0.533 for the first, 0.46 for the second.

Compared with C54G G58A, C54G G65C is lower in self-cleavage: 0.849 for the first, 0.503 for the second.

First: C54G G68U
Second: C54G U55A
The self-cleavage of the first is higher: 0.993 for the first, 0.745 for the second.

Compared with C54G U55G, C54G U61A is higher in self-cleavage: 0.407 for the first, 0.569 for the second.

First: C54G U61G
Second: C54G U62C
The self-cleavage of the first is lower: 0.436 for the first, 0.483 for the second.

Compared with C54G U62G, C54G U64A is higher in self-cleavage: 0.609 for the first, 0.63 for the second.

Going from C54G U64C to C54G U67A, the self-cleavage rises from 0.542 to 0.938.

First: C54G U69C
Second: C54U A59C
The self-cleavage of the first is higher: 1.04 for the first, 0.678 for the second.

First: C54U A60G
Second: C54U C63U
The self-cleavage of the first is lower: 0.903 for the first, 1.02 for the second.

Compared with C54U G58U, C54U G65U is lower in self-cleavage: 1.02 for the first, 0.809 for the second.

Going from C54U U55G to C54U U61C, the self-cleavage rises from 0.806 to 0.861.

Going from C54U U64A to C54U U64C, the self-cleavage rises from 0.905 to 0.92.

First: C54U U64G
Second: C54U U69A
The self-cleavage of the first is lower: 0.924 for the first, 1.04 for the second.

Compared with U55A, U55A A60C is lower in self-cleavage: 0.96 for the first, 0.343 for the second.

Compared with U55A C57A, U55A C57G is lower in self-cleavage: 0.34 for the first, 0.33 for the second.

First: U55A C57U
Second: U55A C63U
The self-cleavage of the first is lower: 0.369 for the first, 0.736 for the second.

First: U55A G58A
Second: U55A G65C
The self-cleavage of the first is higher: 0.927 for the first, 0.491 for the second.

Compared with U55A G65U, U55A G68C is higher in self-cleavage: 0.421 for the first, 1.01 for the second.

Compared with U55A U61C, U55A U62A is higher in self-cleavage: 0.445 for the first, 0.489 for the second.

Compared with U55A U62C, U55A U64A is lower in self-cleavage: 0.67 for the first, 0.532 for the second.

Compared with U55A U67A, U55A U67G is higher in self-cleavage: 0.921 for the first, 0.963 for the second.

Compared with U55A U69G, U55C is lower in self-cleavage: 1 for the first, 0.937 for the second.

First: U55C A59C
Second: U55C A59G
The self-cleavage of the first is lower: 0.464 for the first, 0.967 for the second.

First: U55C A60G
Second: U55C A60U
The self-cleavage of the first is higher: 0.602 for the first, 0.388 for the second.

First: U55C C57G
Second: U55C C57U
The self-cleavage of the first is higher: 0.322 for the first, 0.295 for the second.

First: U55C G56A
Second: U55C G56C
The self-cleavage of the first is higher: 0.996 for the first, 0.583 for the second.

First: U55C G65A
Second: U55C G65U
The self-cleavage of the first is higher: 0.588 for the first, 0.495 for the second.

Going from U55C G68A to U55C U61G, the self-cleavage falls from 0.961 to 0.434.

First: U55C U62A
Second: U55C U62C
The self-cleavage of the first is lower: 0.445 for the first, 0.592 for the second.

Compared with U55C U64A, U55C U67A is higher in self-cleavage: 0.567 for the first, 0.932 for the second.

Going from U55C U67G to U55G, the self-cleavage rises from 0.826 to 0.881.

Going from U55G A59U to U55G A60G, the self-cleavage rises from 0.394 to 0.552.

Going from U55G A60U to U55G C57A, the self-cleavage rises from 0.291 to 0.317.

Compared with U55G C63U, U55G C66G is lower in self-cleavage: 0.626 for the first, 0.451 for the second.

Compared with U55G G56C, U55G G56U is higher in self-cleavage: 0.729 for the first, 0.817 for the second.

First: U55G G58U
Second: U55G G68U
The self-cleavage of the first is higher: 0.946 for the first, 0.874 for the second.

Compared with U55G U61A, U55G U62G is lower in self-cleavage: 0.497 for the first, 0.381 for the second.

Compared with U55G U64G, U55G U67G is higher in self-cleavage: 0.491 for the first, 0.826 for the second.

Going from U55G U69C to G56A A59C, the self-cleavage falls from 0.962 to 0.432.

Going from G56A C63A to G56A C66A, the self-cleavage rises from 0.648 to 0.702.

Compared with G56A G58A, G56A G58C is higher in self-cleavage: 0.905 for the first, 0.971 for the second.

Going from G56A G68C to G56A G68U, the self-cleavage rises from 0.992 to 1.04.

Going from G56A U61C to G56A U61G, the self-cleavage rises from 0.617 to 0.676.

Going from G56A U64C to G56A U64G, the self-cleavage rises from 0.777 to 0.828.

Going from G56A U69A to G56C A59C, the self-cleavage falls from 1.03 to 0.403.

Going from G56C A59G to G56C A60C, the self-cleavage falls from 0.705 to 0.295.

Going from G56C C63A to G56C C63G, the self-cleavage falls from 0.47 to 0.456.

Going from G56C C63U to G56C G58A, the self-cleavage rises from 0.709 to 0.76.

Going from G56C G58C to G56C G58U, the self-cleavage rises from 0.907 to 0.917.

Going from G56C G65A to G56C G65C, the self-cleavage rises from 0.459 to 0.57.

Going from G56C G68C to G56C U62G, the self-cleavage falls from 0.907 to 0.59.

Compared with G56C U64G, G56U A59C is lower in self-cleavage: 0.533 for the first, 0.514 for the second.

Compared with G56U A59U, G56U A60C is lower in self-cleavage: 0.672 for the first, 0.368 for the second.

Going from G56U C57A to G56U C57U, the self-cleavage rises from 0.291 to 0.322.

First: G56U C66G
Second: G56U C66U
The self-cleavage of the first is lower: 0.552 for the first, 0.872 for the second.

Compared with G56U G65A, G56U G65U is lower in self-cleavage: 0.47 for the first, 0.468 for the second.

First: G56U G68A
Second: G56U G68C
The self-cleavage of the first is higher: 1.05 for the first, 0.963 for the second.

First: G56U U61C
Second: G56U U61G
The self-cleavage of the first is lower: 0.383 for the first, 0.548 for the second.

Compared with G56U U64A, G56U U64G is higher in self-cleavage: 0.612 for the first, 0.753 for the second.

Compared with G56U U67A, G56U U67C is lower in self-cleavage: 0.943 for the first, 0.894 for the second.

First: G56U U67G
Second: G56U U69G
The self-cleavage of the first is lower: 0.945 for the first, 1.02 for the second.

First: C57A
Second: C57A A59C
The self-cleavage of the first is higher: 0.346 for the first, 0.335 for the second.

Compared with C57A A60G, C57A G58C is higher in self-cleavage: 0.347 for the first, 0.397 for the second.

Going from C57A G65C to C57A G65U, the self-cleavage falls from 0.4 to 0.399.

Going from C57A G68C to C57A U61A, the self-cleavage falls from 0.5 to 0.428.

Compared with C57A U61G, C57A U62A is lower in self-cleavage: 0.402 for the first, 0.32 for the second.

Compared with C57A U64G, C57A U67A is lower in self-cleavage: 0.384 for the first, 0.275 for the second.

Going from C57A U67C to C57A U69C, the self-cleavage rises from 0.25 to 0.499.

Going from C57G to C57G A59C, the self-cleavage falls from 0.354 to 0.3.

Going from C57G A60C to C57G C63G, the self-cleavage rises from 0.258 to 0.285.

First: C57G C63U
Second: C57G C66G
The self-cleavage of the first is lower: 0.356 for the first, 0.39 for the second.

Going from C57G C66U to C57G G68U, the self-cleavage rises from 0.333 to 0.365.

Compared with C57G U62C, C57G U62G is higher in self-cleavage: 0.288 for the first, 0.448 for the second.

Compared with C57G U69A, C57G U69G is higher in self-cleavage: 0.381 for the first, 0.473 for the second.

Going from C57U to C57U A59C, the self-cleavage rises from 0.375 to 0.376.

First: C57U C63U
Second: C57U C66U
The self-cleavage of the first is lower: 0.34 for the first, 0.42 for the second.

Going from C57U G65U to C57U G68C, the self-cleavage falls from 0.375 to 0.365.

Compared with C57U U61A, C57U U62G is lower in self-cleavage: 0.406 for the first, 0.327 for the second.

In the case of C57U U64A, the self-cleavage is reported as 0.392.
